Assay results: IntAct's records for PubMed 9341158

B1: AP-2 complex subunit mu (Rattus norvegicus (Rat)), P84092 (parent)
chain: MIGGLFIYNHKGEVLISRVYRDDIGRNAVDAFRVNVIHARQQVRSPVTNIARTSFFHVKRSNIWLAAVTKQNVNAAMVFEFLYKMCDVMAAYFGKISEENIKNNFVLIYELLDEILDFGYPQNSETGALKTFITQQGIKSQHQTKEEQSQITSQVTGQIGWRREGIKYRRNELFLDVLESVNLLMSPQGQVLSAHVSGRVVMKSYLSGMPECKFGMNDKIVIEKQGKGTADETSKSGKQSIAIDDCTFHQCVRLSKFDSERSISFIPPDGEFELMRYRTTKDIILPFRVIPLVREVGRTKLEVKVVIKSNFKPSLLAQKIEVRIPTPLNTSGVQVICMKGKAKYKASENAIVWKIKRMAGMKESQISAEIELLPTNDKKKWARPPISMNFEVPFAPSGLKVRYLKVFEPKLNYSDHDVIKWVRYIGRSGIYETRC

Variants of: B1
Details: with tgon3_rat Ttgn1, P19814
tgon3_rat Ttgn1, P19814, sequence (P19814 whole entry): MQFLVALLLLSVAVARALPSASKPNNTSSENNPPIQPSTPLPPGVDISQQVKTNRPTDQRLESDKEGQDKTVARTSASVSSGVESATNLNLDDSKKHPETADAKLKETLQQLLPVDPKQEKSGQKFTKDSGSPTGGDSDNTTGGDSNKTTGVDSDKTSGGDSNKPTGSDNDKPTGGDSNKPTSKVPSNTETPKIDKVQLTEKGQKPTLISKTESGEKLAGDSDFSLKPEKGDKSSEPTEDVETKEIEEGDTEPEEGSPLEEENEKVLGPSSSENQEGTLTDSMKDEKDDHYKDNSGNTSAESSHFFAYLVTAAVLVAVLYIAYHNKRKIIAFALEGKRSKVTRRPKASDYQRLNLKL

effect of a mutation on the interaction | Variant
decreasing interaction | MIGGLFIYNHKGEVLISRVYRDDIGRNAVDAFRVNVIHARQQVRSPVTNIARTSFFHVKRSNIWLAAVTKQNVNAAMVFEFLYKMCDVMAAYFGKISEENIKNNFVLIYELLDEILDFGYPQNSETGALKTFITQQGIKSQHQTKEEQSQITSQVTGQIGWRREGIKYRRNELFLDVLESVNLLMSPQGQVLSAHVSGRVVMKSYLSGMPECKFGMNDKIVIEKQGKGTADETSKSGKQSIAIDDCTFHQCVRLSKFDSERSISFIPPAGEFELMRYRTTKDIILPFRVIPLVREVGRTKLEVKVVIKSNFKPSLLAQKIEVRIPTPLNTSGVQVICMKGKAKYKASENAIVWKIKRMAGMKESQISAEIELLPTNDKKKWARPPISMNFEVPFAPSGLKVRYLKVFEPKLNYSDHDVIKWVRYIGRSGIYETRC [D269A]
decreasing interaction | MIGGLFIYNHKGEVLISRVYRDDIGRNAVDAFRVNVIHARQQVRSPVTNIARTSFFHVKRSNIWLAAVTKQNVNAAMVFEFLYKMCDVMAAYFGKISEENIKNNFVLIYELLDEILDFGYPQNSETGALKTFITQQGIKSQHQTKEEQSQITSQVTGQIGWRREGIKYRRNELFLDVLESVNLLMSPQGQVLSAHVSGRVVMKSYLSGMPECKFGMNDKIVIEKQGKGTADETSKSGKQSIAIDDCTFHQCVRLSKFDSERSISFIPPDAEFELMRYRTTKDIILPFRVIPLVREVGRTKLEVKVVIKSNFKPSLLAQKIEVRIPTPLNTSGVQVICMKGKAKYKASENAIVWKIKRMAGMKESQISAEIELLPTNDKKKWARPPISMNFEVPFAPSGLKVRYLKVFEPKLNYSDHDVIKWVRYIGRSGIYETRC [G270A]

The remaining lines, values behind:

Variant | effect of a mutation on the interaction
MIGGLFIYNHKGEVLISRVYRDDIGRNAVDAFRVNVIHARQQVRSPVTNIARTSFFHVKRSNIWLAAVTKQNVNAAMVFEFLYKMCDVMAAYFGKISEENIKNNFVLIYELLDEILDFGYPQNSETGALKTFITQQGIKSQHQTKEEQSQITSQVTGQIGWRREGIKYRRNELFLDVLESVNLLMSPQGQVLSAHVSGRVVMKSYLSGMPECKFGMNDKIVIEKQGKGTADETSKSGKQSIAIDDCTFHQCVRLSKFDSERSISAIPPDGEFELMRYRTTKDIILPFRVIPLVREVGRTKLEVKVVIKSNFKPSLLAQKIEVRIPTPLNTSGVQVICMKGKAKYKASENAIVWKIKRMAGMKESQISAEIELLPTNDKKKWARPPISMNFEVPFAPSGLKVRYLKVFEPKLNYSDHDVIKWVRYIGRSGIYETRC [F265A] | decreasing interaction
MIGGLFIYNHKGEVLISRVYRDDIGRNAVDAFRVNVIHARQQVRSPVTNIARTSFFHVKRSNIWLAAVTKQNVNAAMVFEFLYKMCDVMAAYFGKISEENIKNNFVLIYELLDEILDFGYPQNSETGALKTFITQQGIKSQHQTKEEQSQITSQVTGQIGWRREGIKYRRNELFLDVLESVNLLMSPQGQVLSAHVSGRVVMKSYLSGAPECKFGMNDKIVIEKQGKGTADETSKSGKQSIAIDDCTFHQCVRLSKFDSERSISFIPPDGEFELMRYRTTKDIILPFRVIPLVREVGRTKLEVKVVIKSNFKPSLLAQKIEVRIPTPLNTSGVQVICMKGKAKYKASENAIVWKIKRMAGMKESQISAEIELLPTNDKKKWARPPISMNFEVPFAPSGLKVRYLKVFEPKLNYSDHDVIKWVRYIGRSGIYETRC [M209A] | decreasing interaction

Variants of: B1
Details: with ap2b1_human AP2B1, P63010
ap2b1_human AP2B1, P63010, sequence (P63010 whole entry): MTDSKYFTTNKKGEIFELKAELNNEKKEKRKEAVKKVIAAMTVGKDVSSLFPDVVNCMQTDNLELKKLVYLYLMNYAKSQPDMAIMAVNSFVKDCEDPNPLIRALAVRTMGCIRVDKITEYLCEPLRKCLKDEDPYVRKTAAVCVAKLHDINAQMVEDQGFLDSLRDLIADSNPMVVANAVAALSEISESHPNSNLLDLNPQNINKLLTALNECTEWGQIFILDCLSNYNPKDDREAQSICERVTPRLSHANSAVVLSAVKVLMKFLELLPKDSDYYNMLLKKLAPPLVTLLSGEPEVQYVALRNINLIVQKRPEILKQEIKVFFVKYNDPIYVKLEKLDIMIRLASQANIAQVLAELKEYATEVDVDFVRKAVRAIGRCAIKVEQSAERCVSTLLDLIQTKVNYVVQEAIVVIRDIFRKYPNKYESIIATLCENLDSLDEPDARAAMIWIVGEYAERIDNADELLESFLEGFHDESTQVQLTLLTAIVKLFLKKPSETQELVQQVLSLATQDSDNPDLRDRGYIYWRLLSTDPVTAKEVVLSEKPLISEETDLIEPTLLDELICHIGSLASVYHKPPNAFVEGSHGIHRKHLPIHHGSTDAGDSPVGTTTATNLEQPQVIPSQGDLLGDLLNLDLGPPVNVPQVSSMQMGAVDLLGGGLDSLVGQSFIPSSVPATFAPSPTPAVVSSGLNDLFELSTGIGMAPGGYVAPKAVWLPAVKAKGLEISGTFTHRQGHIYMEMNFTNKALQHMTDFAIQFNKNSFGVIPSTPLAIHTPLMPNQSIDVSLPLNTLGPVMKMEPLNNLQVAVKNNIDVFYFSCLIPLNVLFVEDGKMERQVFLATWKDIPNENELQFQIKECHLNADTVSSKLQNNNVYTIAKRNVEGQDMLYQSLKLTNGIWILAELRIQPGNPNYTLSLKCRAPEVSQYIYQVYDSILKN

effect of a mutation on the interaction | Variant
decreasing interaction | MIGGLFIYNHKGEVLISRVYRDDIGRNAVDAFRVNVIHARQQVRSPVTNIARTSFFHVKRSNIWLAAVTKQNVNAAMVFEFLYKMCDVMAAYFGKASEENIKNNFVLIYELLDEILDFGYPQNSETGALKTFITQQGIKSQHQTKEEQSQITSQVTGQIGWRREGIKYRRNELFLDVLESVNLLMSPQGQVLSAHVSGRVVMKSYLSGMPECKFGMNDKIVIEKQGKGTADETSKSGKQSIAIDDCTFHQCVRLSKFDSERSISFIPPDGEFELMRYRTTKDIILPFRVIPLVREVGRTKLEVKVVIKSNFKPSLLAQKIEVRIPTPLNTSGVQVICMKGKAKYKASENAIVWKIKRMAGMKESQISAEIELLPTNDKKKWARPPISMNFEVPFAPSGLKVRYLKVFEPKLNYSDHDVIKWVRYIGRSGIYETRC [I96A]
decreasing interaction | MIGGLFIYNHKGEVLISRVYRDDIGRNAVDAFRVNVIHARQQVRSPVTNIARTSFFHVKRSNIWLAAVTKQNVNAAMVFEFLAKMCDVMAAYFGKISEENIKNNFVLIYELLDEILDFGYPQNSETGALKTFITQQGIKSQHQTKEEQSQITSQVTGQIGWRREGIKYRRNELFLDVLESVNLLMSPQGQVLSAHVSGRVVMKSYLSGMPECKFGMNDKIVIEKQGKGTADETSKSGKQSIAIDDCTFHQCVRLSKFDSERSISFIPPDGEFELMRYRTTKDIILPFRVIPLVREVGRTKLEVKVVIKSNFKPSLLAQKIEVRIPTPLNTSGVQVICMKGKAKYKASENAIVWKIKRMAGMKESQISAEIELLPTNDKKKWARPPISMNFEVPFAPSGLKVRYLKVFEPKLNYSDHDVIKWVRYIGRSGIYETRC [Y83A]
decreasing interaction | MIGGLFIYNHKGEVLISRVYRDDIGRNAVDAFRVNVIHARQQVRSPVTNIARTSFFHVKRSNIWLAAVTKQNVNAAMVFEFAYKMCDVMAAYFGKISEENIKNNFVLIYELLDEILDFGYPQNSETGALKTFITQQGIKSQHQTKEEQSQITSQVTGQIGWRREGIKYRRNELFLDVLESVNLLMSPQGQVLSAHVSGRVVMKSYLSGMPECKFGMNDKIVIEKQGKGTADETSKSGKQSIAIDDCTFHQCVRLSKFDSERSISFIPPDGEFELMRYRTTKDIILPFRVIPLVREVGRTKLEVKVVIKSNFKPSLLAQKIEVRIPTPLNTSGVQVICMKGKAKYKASENAIVWKIKRMAGMKESQISAEIELLPTNDKKKWARPPISMNFEVPFAPSGLKVRYLKVFEPKLNYSDHDVIKWVRYIGRSGIYETRC [L82A]
